In US20250270301A1 (GEN2 NEUROSCIENCE, published 2025):
Residue numbers refer to the chain shown, from its start.

B1: #44_VH4VK4_H19/pVL (antibody, V domains shown)
VH: QVQLQESGPGLVKPSETLSLTCTVSGIDLSSYAMAWVRQAPGKGLEWIGAIDSRGATFYASWVKGRFTISKDTSKTTVDLQMTSLTAEDTATYFCARDSGAFDPWGQGTLVTVSS
VL: DIQMTQSPSSLSASVGDRVTITCQASQSVYDNYLAWYQQKPGQPPKLLIHAASNLASGVPSRFSGSGSGTEFTLTISSLQPDDFATYYCLGEFSCTTTDCNVFGGGTKVEIK
notes: also called Clone VH4_H19; #44_VH4_H19
B2: #44_VH4VK4_H18/pVL (antibody, V domains shown)
VH: B1 VH with S53A, R54G, A56N
VL: B1 VL
notes: also called Clone VH4_H18; #44_VH4_H18
B3: #44_VH4VK4_H02/pVL (antibody, V domains shown)
VH: B1 VH with A50C, S53R, A56G, S99R, A101D, P104V
VL: B1 VL
notes: also called Clone VH4_H02; #44_VH4_H02
B4: #44_VH4VK4_H01/pVL (antibody, V domains shown)
VH: B1 VH with A50C, S53R, A56G, S99V, A101S, P104V
VL: B1 VL
notes: also called Clone VH4_H01; #44_VH4_H01
B5: #44_VH4VK4_H17/pVL (antibody, V domains shown)
VH: B1 VH with S53R, R54V, A56N
VL: B1 VL
notes: also called Clone VH4_H17; #44_VH4_H17
B6: #44_VH4VK4_H15/pVL (antibody, V domains shown)
VH: B1 VH with R54V, A56N
VL: B1 VL
notes: also called Clone VH4_H15; #44_VH4_H15
B7: #44_VH4VK4_H13/pVL (antibody, V domains shown)
VH: B1 VH with R54A, A56N
VL: B1 VL
notes: also called Clone VH4_H13; #44_VH4_H13
B8: #44_VH4VK4_H20/pVL (antibody, V domains shown)
VH: B1 VH with A56S
VL: B1 VL
notes: also called Clone VH4_H20; #44_VH4_H20
B9: #44_VH4VK4 pVH/L2 (antibody, V domains shown)
VH: B1 VH with A50C, S53R, A56G
VL: DIQMTQSPSSLSASVGDRVTITCQASQSVYDNYLAWYQQKPGQPPKLLIHAASNLASGVPSRFSGSGSGTEFTLTISSLQPDDFATYYCLGEFSCQDTDCNVFGGGTKVEIKR
notes: also called Clone VK4_L2; #44_VK4_L2
B10: #44_VH4VK4_H14/pVL (antibody, V domains shown)
VH: B1 VH with R54A, A56S, F67S
VL: B1 VL
notes: also called Clone VH4_H14; #44_VH4_H14
B11: #44_VH4VK4_H16/pVL (antibody, V domains shown)
VH: B1 VH with S53R, R54A, A56N
VL: B1 VL
notes: also called Clone VH4_H16; #44_VH4_H16
B12: #44_VH4VK4 humanised hIgG1 (antibody, V domains shown)
VH: B1 VH with A50C, S53R, A56G
VL: B1 VL
notes: also called VH4Vκ4; pVH/pVL

target: T1, Bovine serum albumin (bovine, UniProt P02769 25-607); assay: ELISA on 1% BSA, HEK supernatant, anti-human IgG-HRP, n=1
T1 construct: also called BSA
T1 sequence (P02769 25-607 limits assumed): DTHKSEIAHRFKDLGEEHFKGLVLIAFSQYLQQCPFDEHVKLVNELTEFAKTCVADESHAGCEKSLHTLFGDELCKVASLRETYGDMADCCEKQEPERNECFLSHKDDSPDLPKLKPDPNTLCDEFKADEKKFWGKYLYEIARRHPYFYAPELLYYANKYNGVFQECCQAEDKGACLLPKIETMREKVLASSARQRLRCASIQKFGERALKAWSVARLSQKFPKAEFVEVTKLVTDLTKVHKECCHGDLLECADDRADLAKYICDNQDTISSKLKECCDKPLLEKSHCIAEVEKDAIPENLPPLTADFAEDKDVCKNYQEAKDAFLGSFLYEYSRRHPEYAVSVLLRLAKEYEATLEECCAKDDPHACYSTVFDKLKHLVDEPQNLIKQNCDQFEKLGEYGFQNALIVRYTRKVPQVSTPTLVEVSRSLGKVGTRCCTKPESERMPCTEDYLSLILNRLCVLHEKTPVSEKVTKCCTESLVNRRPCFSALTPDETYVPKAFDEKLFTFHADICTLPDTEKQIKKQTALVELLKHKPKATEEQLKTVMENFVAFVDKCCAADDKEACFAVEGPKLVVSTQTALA

| Binder | binding result |
| --- | --- |
| B1 | no binding (tested: 30 ng/ml (legend 1:100)) |
| B2 | no binding (tested: 30 ng/ml (legend 1:100)) |
| B3 | no binding (tested: 30 ng/ml (legend 1:100)) |
| B4 | no binding (tested: 30 ng/ml (legend 1:100)) |
| B5 | no binding (tested: 30 ng/ml (legend 1:100)) |
| B6 | no binding (tested: 30 ng/ml (legend 1:100)) |
| B7 | no binding (tested: 30 ng/ml (legend 1:100)) |
| B8 | no binding (tested: 30 ng/ml (legend 1:100)) |
| B9 | no binding (tested: 30 ng/ml (legend 1:100)) |
| B10 | no binding (tested: 30 ng/ml (legend 1:100)) |
| B11 | no binding (tested: 30 ng/ml (legend 1:100)) |

target: T2, full length recombinant human 2N4R tau (human, UniProt P10636 1-758); assay: SPR MCK, IgG on Protein A, tau in flow at 100 µL/min
T2 construct: bought from rPeptide; pHrodo Red maleimide-labelled where it stands in uptake assays; also called tau1-441; full length tau
T2 sequence (P10636 other isoform, or with tags, fused parts or gaps limits assumed): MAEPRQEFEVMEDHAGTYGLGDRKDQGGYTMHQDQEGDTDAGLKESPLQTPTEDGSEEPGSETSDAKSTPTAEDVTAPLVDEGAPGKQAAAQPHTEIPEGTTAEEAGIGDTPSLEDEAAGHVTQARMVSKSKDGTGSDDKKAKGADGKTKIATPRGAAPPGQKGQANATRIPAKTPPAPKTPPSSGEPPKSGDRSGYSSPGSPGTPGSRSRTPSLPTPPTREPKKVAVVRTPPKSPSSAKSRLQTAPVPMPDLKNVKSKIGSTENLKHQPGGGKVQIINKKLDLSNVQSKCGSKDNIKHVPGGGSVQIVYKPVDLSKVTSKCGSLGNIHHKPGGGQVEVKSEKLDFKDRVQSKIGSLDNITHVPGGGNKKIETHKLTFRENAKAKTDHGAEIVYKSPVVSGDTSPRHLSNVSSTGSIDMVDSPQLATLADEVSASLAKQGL

| Fold improvement (KD, to pVH/pVL) | Kd [nM] | koff [s⁻¹] | kon [M⁻¹ s⁻¹] | Binder |
| --- | --- | --- | --- | --- |
| 1 | 7.76 | 0.0147 | 1.89e+06 | B12 |
| 5.1 | 1.52 | 0.0037 | 2.43e+06 | B3 |
| 1.9 | 4.01 | 0.00957 | 2.39e+06 | B4 |

target: T2, full length recombinant human 2N4R tau; assay: SPR MCK, IgG on Protein A, tau in flow
Description: Slight variations in RMAX are considered likely to be due to differences in ligand capture and not reflective of significant variation in antibody binding characteristics.
22.2 Assessment of antibody binding to tau (Biacore MCK analysis): Binding of anti-tau hIgG1 to full length recombinant 2N4R tau (Rpeptide; SEQ ID NO: 2) was assessed using the Biacore T200 (GE Healthcare, Chicago, IL, USA) running Biacore T200 Evaluation Software V2.0.1. hIgG1 were immobilised on a Protein A capture sensor chip in running buffer (HBS-EP+ buffer containing 1 mg/mL BSA) at 25° C., captured to ˜50 RU at […]. For multi-cycle kinetics experiments, recombinant 2N4R tau was flowed at concentrations ranging from 0.39 nM to 12.5 nM in running buffer at 40 μL/min, with an association time of 60 s and a dissociation time of 200 s. Curves were compared to a reference cell that was mock immobilized (no antibody present).

| Kd [nM] | Relative KD (to VH0VK0) | koff [s⁻¹] | kon [M⁻¹ s⁻¹] | Binder |
| --- | --- | --- | --- | --- |
| 5.84 | 1.8 | 0.0316 | 5.41e+06 | B12 |

target: T2, full length recombinant human 2N4R tau; assay: SPR SCK, IgG on Protein A, tau in flow
Description: 21.5 Assessment of antibody binding to tau (Biacore SCK analysis): Binding of anti-tau hIgG1 to full length recombinant 2N4R tau (Rpeptide; SEQ ID NO: 2) was assessed using the Biacore T200 (GE Healthcare, Chicago, IL, USA) running Biacore T200 Evaluation Software V2.0.1. hIgG1 were immobilised on a Protein A capture sensor chip in running buffer (HBS-EP+ buffer containing 1 mg/mL BSA) at 25° C., captured to ˜50 RU at 10 μL/min. For single-cycle kinetics experiments, recombinant 2N4R tau was flowed at concentrations ranging from 1.25 nM to 10 nM (2-fold dilutions) with an association time of 60 s and a dissociation time of 200 s. Curves were compared to a reference cell that was mock immobilized (no antibody present).

| Kd [nM] | Relative KD (to VH0VK0) | koff [s⁻¹] | kon [M⁻¹ s⁻¹] | Binder |
| --- | --- | --- | --- | --- |
| 8.12 | 2.12 | 0.0294 | 3.61e+06 | B12 |

target: T2, full length recombinant human 2N4R tau; assay: SPR SCK, IgG on Protein A, tau in flow; remark: another data set of the same source

| Fold change (KD, to pVH/pVL) | Kd [nM] | koff [s⁻¹] | kon [M⁻¹ s⁻¹] | Binder |
| --- | --- | --- | --- | --- |
| 1 | 6.58 | 0.012 | 1.82e+06 | B12 |
| 0.68 | 9.72 | 0.0122 | 1.26e+06 | B1 |
| 0.19 | 34.2 | 0.00983 | 287000 | B2 |
| 5.62 | 1.17 | 0.00324 | 2.78e+06 | B3 |
| 2.43 | 2.71 | 0.00805 | 2.97e+06 | B4 |
| 1.03 | 6.36 | 0.306 | 4.81e+07 | B5 |
| 0.75 | 8.76 | 0.0361 | 4.12e+06 | B6 |
| 0.38 | 17.3 | 0.0148 | 855000 | B7 |
| 0.75 | 8.78 | 0.0404 | 4.6e+06 | B8 |
| 0.89 | 7.38 | – | – | B9 |
| 1.03 | 6.37 | – | – | B10 |
| 0.69 | 9.51 | – | – | B11 |

target: T1, Bovine serum albumin; assay: ELISA on 1% BSA, HEK supernatant, anti-human IgG-HRP, n=1; remark: another data set of the same source
Description: FIG. 7. A panel of humanised anti-tau IgG bind to full length recombinant 2N4R tau in an ELISA format. Supernatants from HEK cells transiently transfected with each IgG clone were tested at 1:100 for binding to full length recombinant 2N4R tau (solid bars). […] Binding of anti-tau hIgG1 was detected using an HRP-conjugated anti-human secondary antibody and data are shown from a representative experiment (n=1 replicate).
Antigen was removed from wells and the plates were then blocked for 1 hour at RT with 5% dried milk in 1×TBS. Blocking solution was removed, HEK293 cell supernatant (1:100 in 1% BSA/1×TBS) was added to relevant wells, and plates were incubated for 1 hour at RT with gentle shaking. Plates were then washed four times with TBS/0.1% Tween (TBST). Goat anti-human IgG-HRP antibody (Thermo Fisher Scientific, Waltham, MA, USA), diluted 1:2000 in 5% milk/TBS, was added to each well and plates were incubated for 1 hour at RT with gentle shaking before being washed four times with TBST. 3,3′,5,5′-tetramethylbenzidine (TMB) ELISA solution was added to each well and plates were incubated for 15 mins at RT. An equal volume of 1 M sulfuric acid was added to each well and OD was measured at 450 nm.

| binding result | Binder |
| --- | --- |
| no binding (tested: supernatant 1:100) | B12 |

target: aggregated (oligomeric) P301S 2N4R tau, pHrodo-labelled (human, UniProt P10636 1-758, pHrodo Red maleimide label); assay: cell-based or functional assay
Sequence (P10636 other isoform, or with tags, fused parts or gaps P301S P301S): as the sequence (P10636 other isoform, or with tags, fused parts or gaps limits assumed) above, with P301S counted along it

| increase of aggregated tau uptake into human iPSC-derived microglia [%] | inhibition of aggregated tau uptake into human astrocytes [%] | inhibition of aggregated tau uptake into human iPSC-derived astrocytes [%] | inhibition of aggregated tau uptake into human iPSC-derived neurons [%] | Binder |
| --- | --- | --- | --- | --- |
| 115 | 41.3 | 61.9 | – | B12 |
| – | 43.3 | – | 59.2 | B3 |
| – | 38.6 | – | 61.1 | B4 |

target: monomeric P301S 2N4R tau, pHrodo-labelled (human, UniProt P10636 1-758, pHrodo Red maleimide label); assay: cell-based or functional assay
Sequence (P10636 other isoform, or with tags, fused parts or gaps P301S P301S): as the sequence (P10636 other isoform, or with tags, fused parts or gaps limits assumed) above, with P301S counted along it

| increase of monomeric tau uptake into human iPSC-derived microglia [%] | inhibition of monomeric tau uptake into human astrocytes [%] | inhibition of monomeric tau uptake into human iPSC-derived astrocytes [%] | inhibition of monomeric tau uptake into human iPSC-derived neurons [%] | Binder |
| --- | --- | --- | --- | --- |
| 59.4 | 52.3 | 94.1 | – | B12 |
| – | 64.7 | – | 84.1 | B3 |
| – | 67.5 | – | 89.2 | B4 |
